Results taken from US20250388680A1 (KITE PHARMA, published 2025).
Changes are numbered by the printed parent chain.

B1: D2D88607-15321 (antibody, V domains shown)
VH: EVQLVESGGGLVQPGGSLRLSCAASGFTFSFNDMNWVRQAPGKGLEWVSTISGSGGSTYYADSVKGRFTISRDNSKNTLYLQMNSLRAEDTAVYYCAVTGLYYYYYMDVWGKGTTVTVSS
VL: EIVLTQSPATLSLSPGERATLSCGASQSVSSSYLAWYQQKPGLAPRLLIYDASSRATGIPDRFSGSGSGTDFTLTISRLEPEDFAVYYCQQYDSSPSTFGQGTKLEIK
notes: also called mAb_018
B2: D2AD89041-10444 (antibody, V domains shown)
VH: EVQLLESGGGLVQPGGSLRLSCAASGFTFNNYVMAWVRQVPGKGLEWVSGISGSGLITSYAASVKDRFTISRDNSNNTVYLQMKSLRAEDTAVYFCAKEPHVLLDDYMDVWGKGTTVTVSS
VL: EIVLTQSPATLSLSPGERATLSCGASQSVTSSYLAWYQQKPGLAPRLLIYDASNRATGIPDRFSGSGSGTDFTLTISRLEPEDFAVYYCQQYGRSLTFGGGTKVEIK
notes: also called mAb_049
B3: D2D88607-14083 (antibody, V domains shown)
VH: EVQLLESGGDLVQPGGSLRLSCAASGFTFSSYAMNWVRQAPGKGLEWVSAISGSGVFTYYADSVKGRFTISRDNSENTLYLQMNSLRAEDTAVYYCAKEMQQLIQGDLFDIWGQGTMVTVSS
VL: B2 VL with T30S, S31N, S32N, N54S, R94S, L96H, G100Q, V104L
notes: also called mAb_017
B4: D2AD88607-5141 (antibody, V domains shown)
VH: QVQLVESGGGVVQPGRSLRLSCAASGFTFSSYGMHWVRQAPGKGLEWVAIISYDGSDKYYADSVKGRFTISRDNSKNTLYLQMNSLRAEDTAVYYCARNYNYYMDVWGKGTTVTVSS
VL: EIVMTQSPATLSLSPGERATLSCRASQSVRSSYLSWYQQKPGQAPRLLIYGTSTRATGIPARFSGSGSGTDFTLTISSLQPEDFAVYYCQQDYNLPLTFGGGTKVEIK
notes: also called mAb_038
B5: D2D88607-9226 (antibody, V domains shown)
VH: QVQLQQWGAGLLKPSETLSLTCAVYGGSFSGYYWSWIRQPPGKGLEWIGEFNHSGGPNYNPSLKSRVTISTDTSNNQFSLKLSSVTAADTAVYYCARGTTGNYYYYMDVWGKGTTVTVSS
VL: AIQMTQSPSSLSASVGDRVTITCRASQGIRNDLGWYQQKPGKAPKLLIYAASSLQSGVPSRFSGSGSGTDFTLTISSLQPEDFATYYCLQDYIYPPTFGPGTKLEIK
notes: also called mAb_023
B6: D2AD88607-7048 (antibody, V domains shown)
VH: EVQLVESGGGLVQPGGSLRLSCAASGFTFSSYDMHWVRQATGKGLEWVSAIGTAGDKYYLASVKGRFTISRENAKNSLYLQMNSLRAGDTAVYYCVRDSLTGPTVTPYMDVWGKGTTVTVSS
VL: EIVLTQSPDFQSVTPKEKVTITCRASQSIGSGLHWYQQKPDQSPKLLIIYASQSISGVPSRFSGSGSGTDFTLTINSLEAEDAAAYYCHQSSSLPYTFGQGTKLEIK
notes: also called mAb_042

Experiments:
[1] = target: T1, huCLEC12B (Acro Biosystems) (human, UniProt Q2HXU8 65-276, limits assumed); assay: Octet BLI, mAb captured on FAB2G anti-human Fab biosensors
T1 construct: Bought protein
T1 sequence (looked up): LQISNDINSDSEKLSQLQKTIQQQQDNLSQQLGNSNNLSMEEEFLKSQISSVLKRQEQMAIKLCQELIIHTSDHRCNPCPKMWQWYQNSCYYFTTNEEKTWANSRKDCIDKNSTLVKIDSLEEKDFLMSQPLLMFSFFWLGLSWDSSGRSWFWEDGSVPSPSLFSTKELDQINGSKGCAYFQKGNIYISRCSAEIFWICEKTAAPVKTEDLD
Experimental: (§1) Octet Off-Rate Ranking Assay: Alternate binding assay was conducted with the recombinant antibodies confirming specific binding to CLL1 without binding to CLEC12B. Briefly, purified mAbs were individually captured on FAB2G anti-human Fab biosensors. The mAb-captured biosensors were dipped in wells containing antigen and the binding response was measured. Biosensors were later dipped in buffer wells to observe the dissociation of bound antigen from captured mAb and were regenerated and similar binding kinetic assays were performed for subsequent antigens. The binding kinetics of fifteen mAbs were illustrated in Table 2.

[2] = target: T2, muIgG2a huCLL1 (human, UniProt Q5QGZ9 65-265, limits assumed); assay: Octet BLI, mAb captured on FAB2G biosensor, antigen in solution
T2 construct: It may be the same construct as muIgG2a monoFc huCLL1 (+) of the ELISA; also called huCLL1.mIgG2a; not shown: mouse IgG2a part
T2 sequence: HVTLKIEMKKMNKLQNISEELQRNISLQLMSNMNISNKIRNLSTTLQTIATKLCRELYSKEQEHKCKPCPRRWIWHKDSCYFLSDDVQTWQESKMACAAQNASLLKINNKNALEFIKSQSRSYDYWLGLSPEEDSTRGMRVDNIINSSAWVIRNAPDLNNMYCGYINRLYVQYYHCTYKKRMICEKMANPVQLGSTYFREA
Experimental: as §1

[3] = target: T3, huIgG1 huCLL1 (human, UniProt Q5QGZ9 65-265, limits assumed); assay: as above
T3 construct: not shown: human IgG1 part
T3 sequence: T2 sequence
Experimental: as §1

[4] = target: T4, muIgG2a monoFc huCLL1 (+) (human); assay: ELISA, plate coated with antigen 1 ug/mL; antibody 10.00 ug/mL in well
T4 construct: ELISA coating antigen
Experimental: ELISA Validation: Antibodies identified by the Beacon screen were made recombinantly and validated for binding to CLL1. High-binding ELISA plate was coated with muIgG2a monoFc huCLL1 (+) (1 μg/mL) overnight at 4° C. After removal of the antigen, the wells were blocked with 2% BSA in 1×PBS for 1 hour. The BSA was then removed and the primary antibody was added to the wells in 1×PBS solution, incubated at RT for 1 hour. The wells were washed four times with 1×PBS. HRP conjugated secondary antibody was added in blocking solution, and was incubated at RT for 45 minutes. The wells were washed five times with 1×PBS. TMB substrate was added, followed by stop solution. The plates were read at 450 nm.

[5] = target: T3, huIgG1 huCLL1; assay: Octet BLI, mAb captured on FAB2G biosensor, antigen in solution; antigen huCLL1 fused to huIgG1 Fc
Experimental: as §1

[6] = target: T2, muIgG2a huCLL1; assay: Octet BLI, mAb captured on FAB2G biosensor, antigen in solution; antigen huCLL1 fused to muIgG2a Fc
Experimental: as §1

Binder | binding result [1] | Kd [2] [nM] | t½ [2] [min] | Kd [3] [nM] | t½ [3] [min] | OD 450 nm [4] [OD] | Kd [5] [nM] | Kd [6] [nM]
B1 | no binding | 4.29 | 83.2 | 29.4 | 9.1 | 1.38 |  | 
B2 | no binding |  | 5.4 |  | 0 | 0.205 | 1120 | 3.46
B3 | no binding | 0.374 | 116 | 3.19 | 18.6 |  |  | 
B4 | no binding | 0.766 | 54.4 | 19.9 | 2.3 | 2 |  | 
B5 | no binding | 0.347 | 64.1 | 2.28 | 16.5 | 1.75 |  | 
B6 | no binding | 2.98 | 7.7 | 81.1 | 0.3 | 1.57 |  | 
